In article PMC11741606 (2025):

What was measured:
Assay in all cases: SPR
[1] = target: T1, dAPN-Y797H ectodomain, hFc-tagged (dog (Canis lupus familiaris), UniProt P79143 33-975, Y797H)
T1 sequence: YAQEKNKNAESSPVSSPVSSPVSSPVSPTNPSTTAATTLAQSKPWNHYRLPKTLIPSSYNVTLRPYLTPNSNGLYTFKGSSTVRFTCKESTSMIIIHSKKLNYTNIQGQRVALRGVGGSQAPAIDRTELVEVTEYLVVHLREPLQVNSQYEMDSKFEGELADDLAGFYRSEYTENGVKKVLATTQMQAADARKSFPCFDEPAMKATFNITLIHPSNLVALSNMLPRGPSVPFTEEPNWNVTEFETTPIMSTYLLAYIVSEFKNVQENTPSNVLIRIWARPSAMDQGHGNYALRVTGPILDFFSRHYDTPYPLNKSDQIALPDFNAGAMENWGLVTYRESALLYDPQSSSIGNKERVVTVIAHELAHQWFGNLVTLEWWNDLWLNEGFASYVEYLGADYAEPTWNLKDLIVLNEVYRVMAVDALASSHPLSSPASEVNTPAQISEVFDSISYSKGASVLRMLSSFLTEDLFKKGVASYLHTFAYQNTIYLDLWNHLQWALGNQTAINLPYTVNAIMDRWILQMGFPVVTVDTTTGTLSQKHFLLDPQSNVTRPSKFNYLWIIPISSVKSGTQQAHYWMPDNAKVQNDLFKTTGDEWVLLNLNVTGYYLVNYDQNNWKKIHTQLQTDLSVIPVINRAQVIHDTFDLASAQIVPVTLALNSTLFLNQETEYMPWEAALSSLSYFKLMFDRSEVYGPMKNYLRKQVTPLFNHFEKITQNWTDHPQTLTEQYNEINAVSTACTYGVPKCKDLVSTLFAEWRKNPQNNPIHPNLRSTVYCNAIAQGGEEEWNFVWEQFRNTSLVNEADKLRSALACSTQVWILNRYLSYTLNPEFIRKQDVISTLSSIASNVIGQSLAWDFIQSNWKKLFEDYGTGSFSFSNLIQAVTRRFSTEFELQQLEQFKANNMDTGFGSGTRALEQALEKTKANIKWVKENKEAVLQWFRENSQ

[2] = target: T2, dAPN-Q746K-D750E ectodomain, hFc-tagged (dog (Canis lupus familiaris), UniProt P79143 33-975, Q746K | D750E)
T2 sequence: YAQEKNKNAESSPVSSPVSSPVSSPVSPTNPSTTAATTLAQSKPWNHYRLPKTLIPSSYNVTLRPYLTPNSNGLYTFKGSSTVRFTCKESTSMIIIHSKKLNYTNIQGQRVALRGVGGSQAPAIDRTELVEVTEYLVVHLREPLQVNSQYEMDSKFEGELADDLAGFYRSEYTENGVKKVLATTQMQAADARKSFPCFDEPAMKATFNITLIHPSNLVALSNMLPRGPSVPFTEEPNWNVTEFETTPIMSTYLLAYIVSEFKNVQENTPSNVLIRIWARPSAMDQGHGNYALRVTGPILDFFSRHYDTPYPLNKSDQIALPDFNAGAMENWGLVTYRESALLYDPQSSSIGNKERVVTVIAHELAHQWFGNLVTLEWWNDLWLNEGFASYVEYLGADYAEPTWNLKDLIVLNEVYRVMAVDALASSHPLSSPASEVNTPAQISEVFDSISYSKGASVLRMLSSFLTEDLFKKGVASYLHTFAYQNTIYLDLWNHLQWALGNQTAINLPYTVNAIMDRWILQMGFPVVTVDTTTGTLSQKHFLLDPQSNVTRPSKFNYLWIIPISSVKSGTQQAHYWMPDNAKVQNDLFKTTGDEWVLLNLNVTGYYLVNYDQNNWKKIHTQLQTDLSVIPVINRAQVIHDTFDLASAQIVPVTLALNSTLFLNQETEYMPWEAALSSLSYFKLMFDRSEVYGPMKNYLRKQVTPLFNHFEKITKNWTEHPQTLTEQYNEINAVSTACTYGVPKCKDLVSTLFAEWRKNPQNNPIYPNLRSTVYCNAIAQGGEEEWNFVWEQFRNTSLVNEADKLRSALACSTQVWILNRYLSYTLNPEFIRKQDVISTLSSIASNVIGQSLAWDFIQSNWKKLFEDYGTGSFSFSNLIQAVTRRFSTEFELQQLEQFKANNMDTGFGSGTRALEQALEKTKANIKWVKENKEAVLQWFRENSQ

[3] = target: T3, dAPN-H751R ectodomain, hFc-tagged (dog (Canis lupus familiaris), UniProt P79143 33-975, H751R)
T3 sequence: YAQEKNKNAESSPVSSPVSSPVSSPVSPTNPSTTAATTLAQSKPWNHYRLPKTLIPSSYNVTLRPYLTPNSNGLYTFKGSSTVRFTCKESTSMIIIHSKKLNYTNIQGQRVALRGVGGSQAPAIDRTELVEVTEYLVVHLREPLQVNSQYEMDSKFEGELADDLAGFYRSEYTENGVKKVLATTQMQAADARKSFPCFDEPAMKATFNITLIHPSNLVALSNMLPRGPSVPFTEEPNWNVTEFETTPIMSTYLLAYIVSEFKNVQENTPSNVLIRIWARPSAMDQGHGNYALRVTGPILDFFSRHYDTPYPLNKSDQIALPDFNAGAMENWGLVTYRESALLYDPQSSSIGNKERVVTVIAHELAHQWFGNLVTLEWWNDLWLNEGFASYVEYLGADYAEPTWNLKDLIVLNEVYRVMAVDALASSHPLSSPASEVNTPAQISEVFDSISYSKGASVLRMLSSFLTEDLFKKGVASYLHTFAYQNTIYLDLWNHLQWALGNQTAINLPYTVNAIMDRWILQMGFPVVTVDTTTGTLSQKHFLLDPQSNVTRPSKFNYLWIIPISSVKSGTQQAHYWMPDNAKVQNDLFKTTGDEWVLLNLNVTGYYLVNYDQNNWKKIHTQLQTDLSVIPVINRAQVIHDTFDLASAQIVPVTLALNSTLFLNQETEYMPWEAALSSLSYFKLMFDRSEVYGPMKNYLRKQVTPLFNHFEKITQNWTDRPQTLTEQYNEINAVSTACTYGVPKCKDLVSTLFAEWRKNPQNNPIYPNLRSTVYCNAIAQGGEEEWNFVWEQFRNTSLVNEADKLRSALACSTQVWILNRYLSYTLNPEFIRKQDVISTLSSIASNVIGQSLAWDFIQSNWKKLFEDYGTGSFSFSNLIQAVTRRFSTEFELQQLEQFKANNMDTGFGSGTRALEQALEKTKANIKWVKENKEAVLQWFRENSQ

B1: TGEV RBD (receptor-binding domain of the transmissible gastroenteritis coronavirus spike protein) (domain or fragment)
chain: TANLNNGFYPVSSSEVGLVNKSVVLLPSFYTHTIVNITIDLGMKRSGYGQPIASTLSNITLPMQDNNTDVYCIRSDQFSVYVHSTCKSSLWDNIFKRNCTDVLDATAVIKTGTCPFSFDKLNNYLTFNKFCLSLSPVGANCKFDVAARTRTNEQVVRSLYVIYEEGDNIVGVPSD
For B1, the Kd [1] was 23.8 nM, the Kd [2] was 1540 nM and the Kd [3] was 241 nM.
